One may read the Kd as the equilibrium constant for the complex coming apart.

Data set [1] deals with PhoP L113D (Mycobacterium tuberculosis, UniProt P71814 1-247, L113D). Nature of the data set: ITC; 5 mM MgCl2; ITC: 20 mM HEPES pH 7.5, 100 mM NaCl, 5 mM MgCl2, 25 C, […]. The note with it: protein: recombinant; tags: N-terminal His-tag removed with TEV; chain copies: 2. Background: In ITC the heat of successive injections is recorded.
Data set [2] has as its target PhoP Y205A (Mycobacterium tuberculosis, UniProt P71814 1-247, Y205A). The description is as above. The note with it: protein: recombinant; tags: N-terminal His-tag removed with TEV; chain copies: 2.

B1: hisG (dsDNA)
DNA 1: CGCGACCCGCAGCATGCTCACAGCTTTCGA
DNA 2: TCGAAAGCTGTGAGCATGCTGCGGGTCGCG
With B1, the Kd worked out at 117 ± 11.7 nM in data set [1] and 114 ± 11.2 nM in data set [2].

B2: ahpC (dsDNA)
DNA 1: TTTGCCTGACAGCGACTTCACGGCACGATG
DNA 2: CATCGTGCCGTGAAGTCGCTGTCAGGCAAA
Consider B2, for which the Kd in data set [1] was 595 ± 51.4 nM; in data set [2] it was 654 ± 57.2 nM.

B3: DRs3 (3-bp spacer) (dsDNA)
DNA 1: AAGTACCTCACAGCACTTCACAGCTTTCAT
DNA 2: ATGAAAGCTGTGAAGTGCTGTGAGGTACTT
Regarding B3, the Kd in data set [1] turned out to be 368 ± 52.2 nM.

B4: DR (dsDNA)
DNA 1: ACGATTCACAGCTGATTCACAGCATCTACG
DNA 2: CGTAGATGCTGTGAATCAGCTGTGAATCGT
As for B4, the Kd in data set [1] stood at 26.2 ± 6.5 nM; in data set [2] it was 21.8 ± 6.2 nM.

B5: lpqA (dsDNA)
DNA 1: GCACCTTCACCGCCCGCCCACAGCCACGCA
DNA 2: TGCGTGGCTGTGGGCGGGCGGTGAAGGTGC
B5: the results for the Kd in data set [1] and in data set [2] were 2870 ± 541 nM and 3080 ± 371 nM, respectively.

The values above are taken from PMC4832192, “Structural basis of DNA sequence recognition by the response regulator PhoP in Mycobacterium tuberculosis”.
